According to patent US7387779B2, “Anti-angiogenic proteins and fragments and methods of use thereof” (Beth Israel Deaconess Medical Center, priority 1998, dated 2008):

Key:
C-PAE cells = assay: Endothelial cell proliferation, 3H-thymidine incorporation; type: cell-based, bovine
Protocol: C-PAE cells were grown to confluence in DMEM with 10% fetal calf serum (FCS) and kept contact inhibited for 48 hours. Control cells were 786-O (renal carcinoma) cells, PC-3 cells, HPEC cells, and A-498 (renal carcinoma) cells. Cells were harvested with trypsinization (Life Technologies/Gibco BRL, Gaithersburg, Md., USA) at 37° C. for five minutes. A suspension of 12,500 cells in DMEM with 1% FCS was added to each well of a 24-well plate coated with 10 μg/ml fibronectin. The cells were incubated for 24 hours at 37° C. with 5% CO2 and 95% humidity. […] Unstimulated controls received no bFGF. Cells were treated with concentrations of Arresten or endostatin ranging from 0.01 to 50 μg/ml. All wells received 1 μCurie of ^3H-thymidine at the time of treatment. After 24 hours, medium was removed and the wells were washed with PBS. Cells were extracted with 1N NaOH and added to a scintillation vial containing 4 ml of ScintiVerse II (Fisher Scientific, Pittsburgh, Pa., USA) solution. Thymidine incorporation was measured using a scintillation counter. The results are shown in FIGS. 3A and 3B, which are a pair of graphs showing incorporation of ^3H-thymidine into C-PAE cells treated with varying amounts of Arresten (FIG. 3A) or endostatin (FIG. 3B). Arresten appeared to inhibit thymidine incorporation in C-PAE as well as did endostatin. Behavior of control cells treated with Arresten and endostatin is also shown in FIG. 4A, 4B, 4C, and 4D, with Arresten having little effect on 786-O cells (FIG. 4A), PC-3 cells (FIG. 4B), or HPEC cells (FIG. 4C). Endostatin had little effect on A-498 cells (FIG. 4D). All groups in FIGS. 3 and 4 represent triplicate samples.
Bovine calf aortic endothelial (C-PAE) cells were grown to confluence in DMEM with 10% fetal calf serum (FCS) and kept contact inhibited for 48 hours. […] Radioactivity was extracted with 1N NaOH and added to a scintillation vial containing 4 ml of ScintiVerse II (Fisher Scientific, Pittsburgh, Pa., USA) solution. Thymidine incorporation was measured using a scintillation counter. […]

786-O tumors = assay: 786-O renal cell carcinoma xenograft; type: in vivo, athymic nude mice; details: for inhibition of tumor growth compared to placebo: 10 mg/kg I.P. daily, 10 days
Protocol: In the first group of six mice, the tumors were allowed to grow to about 700 mm^3. In a second group of six mice, the tumors were allowed to group to 100 mm^3. Arresten in sterile PBS was injected I.P. daily for 10 days, at a concentration of 20 mg/kg for the mice with tumors of 700 mm^3, and 10 mg/kg for the mice with tumors of 100 mm^3. Control mice received either BSA or the PBS vehicle. […] Tumors in the Arresten-treated mice shrank from 700 to 500 mm^3, while tumors in BSA-treated and control mice grew to about 1200 mm^3 in 10 days. […] The tumors were allowed to grow to either about 100 mm^3 or about 700^3. Each group contained 6 mice. Canstatin in sterile PBS was injected I.P. daily at a concentration of 10 mg/kg for 10 days. The control group received the same volume of PBS. The results are shown in FIGS. 17C (100 mm^3 tumors) and […] (700 mm^3 tumors). In both groups, the Canstatin-treated (.box-solid.) tumors actually shrank relative to the controls (□). Tumstatin's effect on another established primary tumors in mice was also studied. […] Tumstatin was intraperitoneally injected daily (6 mg/kg) for 10 days in sterile PBS. The control group received BSA injections. […] E. Coli-produced Tumstatin at 6 mg/kg inhibited the tumor growth of 786-O human renal cell carcinoma as compared to the BSA control (FIG. 27B). […] Each point represents the mean i SE of 5-6 mice per group. Data points marker with an asterisk were significant, with P<0.05 by one tailed Student's t test. […] The tumors were allowed to grow to a size of about 100-150 mm^3. The mice were then divided into groups of 5, and were injected daily intraperitoneally with 20 mg/kg of the E. Coli-expressed truncated Tumstatin lacking the 53 N-terminal amino acids (Kalluri, R. et al., 1996, J. Biol. Chem. 271:9062-68) for 10 days. Control mice received PBS injection. The results are shown in FIG. 28, which is a graph showing increase in tumor volume (y-axis) against day of treatment (x-axis) for control mice (□) and mice treated with the Tumstatin mutant N53 (●). […] Each point represents the mean ±SE of 5-6 mice/group. Data points marked with an asterisk were significant, with P<0.05 by one-tailed Student's t test.

B1: endostatin: tumor associated angiogenesis inhibitor used as comparator (protein, UniProt P39060 1572-1754, looked up)
Endostatin: HSHRDFQPVLHLVALNSPLSGGMRGIRGADFQCFQQARAVGLAGTFRAFLSSRLQDLYSIVRRADRAAVPIVNLKDELLFPSWEALFSGSEGPLKPGARIFSFDGKDVLRHPTWPQKSVWHGSDPNGRRLTESYCETWRTEAPSATGQASSLLGGRLLGQSAASCHHAYIVLCIENSFMTASK
modifications: Endostatin
C-PAE cells; bFGF-stimulated, E. Coli-produced Arresten
  ED50, inhibition of proliferation: 0.75 µg/mL

B2: Tum-1: residues 54 to 244 of Tumstatin, lacking the N-terminal 53 amino acids (SEQ ID NO:22) (protein)
chain: QRAHGQDLGTLGSCLQRFTTMPFLFCNVNDVCNFASRNDYSYWLSTPALMPMNMAPITGRALEPYISRCTVCEGPAIAIAVHSQTTDIPPCPHGWISLWKGFSFIMFTSAGSEGTGQALASPGSCLEEFRASPFLECHGRGTCNYYSNSYSFWLASLNPERMFRKPIPSTVKAGELEKIISRCQVCMKKRH
modifications: Tum-1 (Tumstatin N-53) (amino acids 54-244 of SEQ ID NO10)
786-O tumors; start 100-150 mm^3, 6 mg/kg in the result sentence (20 mg/kg in the method), control 345.0±24.0
  tumor volume on day 10: 110.0±29.0 mm^3

B3: Canstatin: NC1 domain of the α2 chain of Type IV collagen (SEQ ID NO:6) (protein, listed as Homo sapiens)
chain: VSIGYLLVKHSQTDQEPMCPVGMNKLWSGYSLLYFEGQEKAHNQDLGLAGSCLARFSTMPFLYCNPGDVCYYASRNDKSYWLSTTAPLPMMPVAEDEIKPYISRCSVCEAPAIAIAVHSQDVSIPHCPAGWRSLWIGYSFLMHTAAGDEGGGQSLVSPGSCLEDFRATPFIECNGGRGTCHYYANKYSFWLTTIPEQSFQGSPSADTLKAGLIRTHISRCQVCMKNL
786-O tumors; large (700 mm^3) tumors
  inhibition of tumor growth compared to placebo: 3 fold
786-O tumors; small (100 mm^3) tumors
  inhibition of tumor growth compared to placebo: 4 fold
C-PAE cells; 10% serum-stimulated
  ED50, inhibition of proliferation: approximately 0.5 μg/ml

B4: Tumstatin: NC1 domain of the α3 chain of type IV collagen, residues 1-244 (SEQ ID NO:10) (protein, listed as Homo sapiens)
chain: GLKGKRGDSGSPATWTTRGFVFTRHSQTTAIPSCPEGTVPLYSGFSFLFVQGNQRAHGQDLGTLGSCLQRFTTMPFLFCNVNDVCNFASRNDYSYWLSTPALMPMNMAPITGRALEPYISRCTVCEGPAIAIAVHSQTTDIPPCPHGWISLWKGFSFIMFTSAGSEGTGQALASPGSCLEEFRASPFLECHGRGTCNYYSNSYSFWLASLNPERMFRKPIPSTVKAGELEKIISRCQVCMKKRH
786-O tumors; 6 mg/kg i.p. daily, start 600-700 mm^3, control 1096±179.7
  tumor volume on day 10: 619±120.7 mm^3
C-PAE cells; 20% FCS stimulated
  ED50, inhibition of 3H-thymidine incorporation: approximately 0.01 mg/ml
